Key:
[1] = target: Cys151 (UniProt position 151, SMGEKCVLHVM); conditions: not stated (reduced, unmodified C151 implied); cited from earlier work
[2] = system: T1, Keap1; assay: intact-protein MS and MS/MS adduct mapping, UV-Vis reaction kinetics with purified Keap1-BTB (no reaction with C151S); the IC50 is from ITDRF-CETSA of Keap1-mCherry in cell lysate; format: binding
T1 construct: cell lysate CETSA

EC50 [2] [µM] | Compound | pKa [1]
 | Kelch-like ECH-associated protein 1 (Keap1), BTB domain (not stated for the recombinant protein (probably Homo sapiens, inferred)) | 6.9
12 | Nc1ccccc1C(=O)/C=C/C(=O)O (mixture of isomers) [Kyn-CKA, (E)- and (Z)-(4-(2-aminophenyl)-4-oxobut-2-enoic acids] | 

— PMC12828764, “The electrophilic metabolite of kynurenine, kynurenine-CKA, requires C151 in Keap1 to derepress Nrf2” (Redox Biology, 2025)
